# B1: A20 (ssRNA)
# RNA: AAAAAAAAAAAAAAAAAAAA
# B2: AAG (ssRNA)
# RNA: AAGAAGAAGAAGAAGAAGAA
# B3: A18 (ordered part of A30) (ssRNA)
# RNA: AAAAAAAAAAAAAAAAAA
# B4: OxyS (ARN)X segment (ssRNA)
# RNA: UCAACUCGAAUAACUAAAGCCAACGUGAAC
# B5: fhlA (ARN)X segment (ssRNA)
# RNA: CUAAUAAAAUUCUACCUAGAAGAACAAAAUGUC
# B6: A20-ATTO488 (ssRNA)
# RNA: AAAAAAAAAAAAAAAAAAAA
# How the values were obtained:
# Hfq102R16A,R17A [1] = target: T1, Hfq102R16A,R17A (Escherichia coli, UniProt P0A6X3 1-102, R16A;R17A); experiment: EMSA; two shifted bands; ITC/FA: 0.25 M NaCl, 20 mM Hepes/NaOH pH 8.0, 5 mM MgCl2, 2% glycerol, 25 C (FA plus 1 g/l BSA); EMSA: 0.25 M NaCl, 50 mM Tris pH 7.5, 10% glycerol, 25 C, 20 nM RNA, 2-200 nM Hfq; settings: protein: recombinant; tags: 6xHis-SUMO tag cleaved (SenP2); chain copies: 6; label: none (AUC, ITC); 5'-32P (EMSA)
# Hfq72 [2] = target: T2, Hfq72 (Escherichia coli, UniProt P0A6X3 1-72); experiment: ITC; first of two events; ITC/FA: 0.25 M NaCl, 20 mM Hepes/NaOH pH 8.0, 5 mM MgCl2, 2% glycerol, 25 C (FA plus 1 g/l BSA); EMSA: 0.25 M NaCl, 50 mM Tris pH 7.5, 10% glycerol, 25 C, 20 nM RNA, 2-200 nM Hfq; settings: protein: recombinant; tags: 6xHis-SUMO tag cleaved (SenP2); chain copies: 6; label: none (AUC, ITC); 5'-32P (EMSA)
# Hfq102R16A,R17A [3] = target: T1, Hfq102R16A,R17A; experiment: EMSA; significant supershift; ITC/FA: 0.25 M NaCl, 20 mM Hepes/NaOH pH 8.0, 5 mM MgCl2, 2% glycerol, 25 C (FA plus 1 g/l BSA); EMSA: 0.25 M NaCl, 50 mM Tris pH 7.5, 10% glycerol, 25 C, 20 nM RNA, 2-200 nM Hfq; settings: protein: recombinant; tags: 6xHis-SUMO tag cleaved (SenP2); chain copies: 6; label: 5'-32P
# Hfq72 [4] = target: T2, Hfq72; experiment: X-ray crystallography; 2.5 A; distal face; (Hfq6:A18)2 dimer by N-site base stacking; pH 4.2; ITC/FA: 0.25 M NaCl, 20 mM Hepes/NaOH pH 8.0, 5 mM MgCl2, 2% glycerol, 25 C (FA plus 1 g/l BSA); EMSA: 0.25 M NaCl, 50 mM Tris pH 7.5, 10% glycerol, 25 C, 20 nM RNA, 2-200 nM Hfq; settings: protein: recombinant; tags: 6xHis-SUMO tag cleaved (SenP2); chain copies: 6
# Hfq102 [5] = target: T3, Hfq102 (Escherichia coli, UniProt P0A6X3 1-102); experiment: AUC; s = 4.5S alone; with fhlA segment ternary s = 5.9S; ITC/FA: 0.25 M NaCl, 20 mM Hepes/NaOH pH 8.0, 5 mM MgCl2, 2% glycerol, 25 C (FA plus 1 g/l BSA); EMSA: 0.25 M NaCl, 50 mM Tris pH 7.5, 10% glycerol, 25 C, 20 nM RNA, 2-200 nM Hfq; settings: protein: recombinant; tags: 6xHis-SUMO tag cleaved (SenP2); chain copies: 6; label: 3' Cy5 or Cy3
# Hfq102 [6] = target: T3, Hfq102; experiment: AUC; s = 4.5S alone; with OxyS segment ternary s = 5.9S; ITC/FA: 0.25 M NaCl, 20 mM Hepes/NaOH pH 8.0, 5 mM MgCl2, 2% glycerol, 25 C (FA plus 1 g/l BSA); EMSA: 0.25 M NaCl, 50 mM Tris pH 7.5, 10% glycerol, 25 C, 20 nM RNA, 2-200 nM Hfq; settings: protein: recombinant; tags: 6xHis-SUMO tag cleaved (SenP2); chain copies: 6; label: 3' Cy3 or Cy5
# Hfq72 [7] = target: T2, Hfq72; experiment: fluorescence anisotropy; first of two events; 1 g/l BSA; ITC/FA: 0.25 M NaCl, 20 mM Hepes/NaOH pH 8.0, 5 mM MgCl2, 2% glycerol, 25 C (FA plus 1 g/l BSA); EMSA: 0.25 M NaCl, 50 mM Tris pH 7.5, 10% glycerol, 25 C, 20 nM RNA, 2-200 nM Hfq; settings: protein: recombinant; tags: 6xHis-SUMO tag cleaved (SenP2); chain copies: 6; label: 3'-ATTO488
binder,measurement,setting,value
B1,binding result,"Hfq102R16A,R17A [1]",binds
same,Kd,Hfq72 [2],1.3 nM
B2,binding result,"Hfq102R16A,R17A [3]",binds
B3,binding result,Hfq72 [4],binds
B4,binding result,Hfq102 [5],binds
B5,binding result,Hfq102 [6],binds
B6,Kd,Hfq72 [7],0.4 nM

# Source: PMC5575007, “Intermolecular base stacking mediates RNA-RNA interaction in a crystal structure of the RNA chaperone Hfq”
